According to IntAct's records for PubMed 19706414:

Molecular target: casp8_human CASP8 (UniProt Q14790)
Sequence (Q14790 whole entry): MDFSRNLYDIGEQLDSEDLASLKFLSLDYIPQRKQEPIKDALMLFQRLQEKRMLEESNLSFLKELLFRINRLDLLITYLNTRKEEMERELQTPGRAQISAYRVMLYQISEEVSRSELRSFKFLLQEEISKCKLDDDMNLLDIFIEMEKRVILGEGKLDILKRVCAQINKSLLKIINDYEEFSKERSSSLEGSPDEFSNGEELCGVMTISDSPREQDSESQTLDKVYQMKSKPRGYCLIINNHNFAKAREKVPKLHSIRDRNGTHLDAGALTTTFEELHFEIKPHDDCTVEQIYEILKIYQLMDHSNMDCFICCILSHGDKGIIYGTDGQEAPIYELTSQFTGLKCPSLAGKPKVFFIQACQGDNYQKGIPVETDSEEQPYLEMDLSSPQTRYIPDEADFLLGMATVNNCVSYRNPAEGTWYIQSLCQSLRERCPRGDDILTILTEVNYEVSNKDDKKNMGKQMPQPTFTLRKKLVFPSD

Chain of Osteopontin (Homo sapiens), P10451-1 D135A;D157A (P10451 whole entry D135A/D157A): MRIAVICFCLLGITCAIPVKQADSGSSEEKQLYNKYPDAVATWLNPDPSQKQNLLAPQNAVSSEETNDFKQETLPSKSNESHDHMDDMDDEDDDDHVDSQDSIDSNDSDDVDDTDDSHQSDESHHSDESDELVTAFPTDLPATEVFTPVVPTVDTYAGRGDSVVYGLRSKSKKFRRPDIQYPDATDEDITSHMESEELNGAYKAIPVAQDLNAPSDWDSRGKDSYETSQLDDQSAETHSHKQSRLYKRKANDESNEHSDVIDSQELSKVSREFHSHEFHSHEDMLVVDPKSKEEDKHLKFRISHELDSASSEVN

effect of a mutation on the interaction: disrupting interaction
Substance: Osteopontin (Homo sapiens), P10451-1 D135A;D157A
